Key:
rat TrkB receptor = target: T1, rat TrkB receptor (rat, UniProt Q63604 32-821); test: recombinant TrkB in a heterologous cell line, primary cells or human iPSC derived cells
T1 construct: whole, on cells; also called rodent TrkB

murine TrkB receptor = target: T2, murine TrkB receptor (murine, UniProt P15209 32-821); test: as above
T2 construct: whole, on cells; also called mouse TrkB; rodent TrkB

[1] = target: T3, human full-length TrkB receptor (human, UniProt Q16620 32-822); test: cell-based or functional assay
[2] = target: T3, human full-length TrkB receptor; test: cell-based or functional assay; remark: listed apart in the source
[3] = target: T4, pan-neurotrophin receptor p75^NTR (UniProt P08138 29-427, limits assumed); test: cell based binding assay
T4 construct: whole, on cells
T4 sequence (looked up): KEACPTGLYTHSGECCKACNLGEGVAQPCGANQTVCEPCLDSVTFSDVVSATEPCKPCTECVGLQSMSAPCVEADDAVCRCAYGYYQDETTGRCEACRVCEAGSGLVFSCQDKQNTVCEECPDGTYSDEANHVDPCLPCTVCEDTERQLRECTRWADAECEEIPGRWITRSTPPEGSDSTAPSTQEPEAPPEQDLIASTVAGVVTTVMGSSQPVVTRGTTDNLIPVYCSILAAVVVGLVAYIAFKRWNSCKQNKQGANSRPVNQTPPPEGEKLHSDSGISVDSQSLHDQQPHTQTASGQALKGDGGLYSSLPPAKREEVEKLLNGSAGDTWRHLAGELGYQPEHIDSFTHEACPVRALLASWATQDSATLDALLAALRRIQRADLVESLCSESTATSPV

[4] = target: T5, recombinant human TrkB extracellular domain (FLAG tag-GSA-C32-H430-His5) (human, UniProt Q16620 31-430); test: SPR, human TrkB-ECD
T5 construct: Single alanine mutants were made in this ECD; also called TrkB-ECD; TrkB ECD; not shown: FLAG tag

[5] = target: TrkB D1-D3 domain variant (C32-L196) (human, UniProt Q16620 32-196); test: SPR with TrkB domain deletion variants
[6] = target: T3, human full-length TrkB receptor; test: cell-based or functional assay; remark: listed apart in the source
TrkB_H284-H430 ECD-6H = target: T6, TrkB_H284-H430 ECD-6H (human, UniProt Q16620 284-430); test: SEC-MALS
T6 construct: the SEC-MALS construct is named only by its residue limits and tag; also called soluble truncated form of the ECD of TrkB

[7] = target: T7, recombinant cynomolgus TrkB-ECD (cynomolgus, UniProt A0A2K5VS06 32-430); test: SPR, 1:1 binding mode, recombinant cynomolgus TrkB-ECD
T7 construct: extracellular domain

[8] = target: T5, recombinant human TrkB extracellular …; test: SPR, 1:1 binding mode, recombinant human TrkB-ECD
human FcRn = human FcRn (human, UniProt P55899 24-297; P61769 21-119, limits assumed); test: SPR

T5 sequence (Q16620 other isoform, or with tags, fused parts or gaps): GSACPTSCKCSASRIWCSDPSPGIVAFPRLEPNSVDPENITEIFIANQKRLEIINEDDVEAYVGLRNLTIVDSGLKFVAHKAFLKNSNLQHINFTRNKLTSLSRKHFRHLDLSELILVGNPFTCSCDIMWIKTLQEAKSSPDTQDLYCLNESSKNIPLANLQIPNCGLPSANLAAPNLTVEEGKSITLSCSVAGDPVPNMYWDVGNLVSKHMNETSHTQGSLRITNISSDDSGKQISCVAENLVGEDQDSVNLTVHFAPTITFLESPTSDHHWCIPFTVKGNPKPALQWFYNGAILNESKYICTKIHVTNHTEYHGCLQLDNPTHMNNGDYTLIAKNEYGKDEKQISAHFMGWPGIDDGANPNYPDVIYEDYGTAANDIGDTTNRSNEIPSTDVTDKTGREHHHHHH
T3 sequence (Q16620 32-822 limits assumed): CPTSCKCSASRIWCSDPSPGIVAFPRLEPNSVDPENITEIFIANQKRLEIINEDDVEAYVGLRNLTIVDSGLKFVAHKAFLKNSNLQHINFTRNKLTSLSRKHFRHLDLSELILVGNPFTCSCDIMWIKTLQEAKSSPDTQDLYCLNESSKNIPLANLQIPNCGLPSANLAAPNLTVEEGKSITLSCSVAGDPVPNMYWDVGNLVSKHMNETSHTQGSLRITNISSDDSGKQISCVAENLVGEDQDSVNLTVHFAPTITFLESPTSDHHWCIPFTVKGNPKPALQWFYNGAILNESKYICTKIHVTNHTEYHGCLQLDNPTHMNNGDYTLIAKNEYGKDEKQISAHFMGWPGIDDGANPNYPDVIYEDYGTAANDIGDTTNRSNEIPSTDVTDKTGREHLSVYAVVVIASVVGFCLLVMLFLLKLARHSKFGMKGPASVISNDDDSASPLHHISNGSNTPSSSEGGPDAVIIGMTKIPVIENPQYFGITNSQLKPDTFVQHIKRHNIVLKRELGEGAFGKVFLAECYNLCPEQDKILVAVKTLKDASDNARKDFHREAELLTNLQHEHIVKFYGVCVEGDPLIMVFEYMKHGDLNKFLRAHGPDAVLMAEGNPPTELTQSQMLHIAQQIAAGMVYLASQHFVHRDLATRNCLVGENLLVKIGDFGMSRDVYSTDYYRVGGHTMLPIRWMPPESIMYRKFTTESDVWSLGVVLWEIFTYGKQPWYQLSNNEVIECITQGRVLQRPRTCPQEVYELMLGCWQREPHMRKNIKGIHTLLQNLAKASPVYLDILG
T6 sequence (Q16620 other isoform, or with tags, fused parts or gaps limits assumed): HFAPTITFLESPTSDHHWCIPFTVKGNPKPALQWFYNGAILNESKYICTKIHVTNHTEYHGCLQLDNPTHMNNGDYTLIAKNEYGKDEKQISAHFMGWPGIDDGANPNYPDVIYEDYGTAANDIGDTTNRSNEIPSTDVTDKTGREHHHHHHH
TrkB D1-D3 domain variant (C32-L196), sequence (Q16620 32-196 limits assumed, stated change not applied): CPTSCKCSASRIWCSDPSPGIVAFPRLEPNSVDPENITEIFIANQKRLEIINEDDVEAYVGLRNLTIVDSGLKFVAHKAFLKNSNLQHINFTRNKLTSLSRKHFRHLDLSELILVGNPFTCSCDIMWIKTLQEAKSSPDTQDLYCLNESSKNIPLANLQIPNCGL
T2 sequence (P15209 32-821): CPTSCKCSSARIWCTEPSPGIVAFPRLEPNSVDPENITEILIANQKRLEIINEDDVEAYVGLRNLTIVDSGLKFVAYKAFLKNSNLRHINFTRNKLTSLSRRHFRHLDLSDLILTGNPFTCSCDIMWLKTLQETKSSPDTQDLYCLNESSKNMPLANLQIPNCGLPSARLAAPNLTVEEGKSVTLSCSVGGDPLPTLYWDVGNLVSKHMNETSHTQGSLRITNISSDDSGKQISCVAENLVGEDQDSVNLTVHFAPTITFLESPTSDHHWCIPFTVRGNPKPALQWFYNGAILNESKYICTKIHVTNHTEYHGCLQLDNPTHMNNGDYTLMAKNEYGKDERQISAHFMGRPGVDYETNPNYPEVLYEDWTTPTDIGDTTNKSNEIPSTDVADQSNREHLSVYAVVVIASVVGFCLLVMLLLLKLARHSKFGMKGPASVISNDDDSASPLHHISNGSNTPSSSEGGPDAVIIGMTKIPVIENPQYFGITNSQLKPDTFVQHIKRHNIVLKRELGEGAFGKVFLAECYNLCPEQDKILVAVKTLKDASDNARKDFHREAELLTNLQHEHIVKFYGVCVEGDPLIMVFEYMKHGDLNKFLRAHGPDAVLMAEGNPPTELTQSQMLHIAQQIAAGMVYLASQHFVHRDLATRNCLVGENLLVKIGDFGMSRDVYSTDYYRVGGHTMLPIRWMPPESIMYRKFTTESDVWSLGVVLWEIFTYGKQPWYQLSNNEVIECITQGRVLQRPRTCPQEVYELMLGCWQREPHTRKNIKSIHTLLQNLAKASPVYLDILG
T1 sequence (Q63604 32-821): as the sequence (P15209 32-821) above, with T3M, S9T, A10T, V32I, R63K, S84G, M153T, L185I, S394T, S770N counted along it

| neurite outgrowth, rat PC12 cells stably expressing human full length TrkB, EC50 [1] | Potentiation of BDNF-induced agonism of TrkB (pTrkB, BDNF alone = 100%) [2] | Kd [4] | koff [4] | kon [4] | EC50 (read off the curve), potentiation of pTrkB in the presence of 10 nM BDNF [6] | Activation of TrkB (pTrkB), EC50 [2] | Binder | cell survival, rat PC12 cells stably expressing human full length TrkB, EC50 [1] | cell survival, EC50 [1] | further results |
| --- | --- | --- | --- | --- | --- | --- | --- | --- | --- | --- |
| 0.19 nM | ~130% | ~42 nM | 0.00239 s⁻¹ | 56600 M⁻¹ s⁻¹ | ~10 nM | – | 1G11 (murine TrkB agonist monoclonal antibody) (antibody, V domains shown, Full length murine heavy and light chains; from a hybridoma of Balb/c mice immunised with human TrkB-ECD; Not Fc-disabled; also called 1G11 mAb; murine 1G11) VH: QVQLQQSGDDLVKPGASVKLSCKASGYTFTSYYINWIKQRPGQGLECIGRIAPGNTYYNEIFKGKAILTVDTSSSTAYIQLSSLSSEDSGVYFCARRGYEGALDYWGQGTSVTVSS VL: DIVLTQSPATLSVTPGDSVSLSCRASQRISNNLHWYQQKSHESPRLLIKYVSQSISGIPSRFSGSGSGTDFTLSINSVETEDFGMYFCQQSNSWPLTFGAGTKLELKR | 0.025 nM | – | binding result (rat TrkB receptor): binds; binding result (murine TrkB receptor): binds; Activation of TrkB (pTrkB, Y515), EC50, CHO-K1 cells [2]: 3.1 nM; binding result [3]: no binding; binding result [5]: no binding |
| 0.07 nM | – | – | – | – | – | – | Humanised 1G11 (H7, Lo1) (antibody, human IgG1, kappa, Straight graft with serine at Kabat position 47 of VH; human IgG1 Fc with L235A and G237A (EU), Fc-disabled) heavy: not shown light: EIVLTQSPATLSLSPGERATLSCRASQRISNNLHWYQQKPGQAPRLLIKYVSQSISGIPARFSGSGSGTDFTLTISSLEPEDFAVYYCQQSNSWPLTFGQGTKLEIKRTVAAPSVFIFPPSDEQLKSGTASVVCLLNNFYPREAKVQWKVDNALQSGNSQESVTEQDSKDSTYSLSSTLTLSKADYEKHKVYACEVTHQGLSSPVTKSFNRGEC | 0.007 nM | – | Kd [7]: ~60 nM; Activation of TrkB (pTrkB), EC50, CHO-K1 cells [1]: 0.65 nM; Kd [8]: ~55 nM; binding result (human FcRn): binds |

Continued, binder first:

| Binder | neurite outgrowth, rat PC12 cells stably expressing human full length TrkB, EC50 [1] | Potentiation of BDNF-induced agonism of TrkB (pTrkB, BDNF alone = 100%) [2] | Kd [4] | koff [4] | kon [4] | EC50 (read off the curve), potentiation of pTrkB in the presence of 10 nM BDNF [6] | Activation of TrkB (pTrkB), EC50 [2] | cell survival, rat PC12 cells stably expressing human full length TrkB, EC50 [1] | cell survival, EC50 [1] | further results |
| --- | --- | --- | --- | --- | --- | --- | --- | --- | --- | --- |
| Brain Derived Neurotrophic Factor (BDNF) (ligand, UniProt P23560 129-247, looked up, also called BNDF) HSDPARRGELSVCDSISEWVTAADKKTAVDMSGGTVTVLEKVPVSKGQLKQYFYETKCNPMGYTKEGCRGIDKRHWNSQCRTTQSYVRALTMDSKKRIGWRFIRIDTSCVCTLTIKRGR | – | – | – | – | – | – | – | – | – | binding result (TrkB_H284-H430 ECD-6H): binds |
| 8E5 (murine TrkB agonist monoclonal antibody) (antibody, mouse IgG1, kappa, V domains shown, Full length murine chains) VH: EVQLVESGGDLVKPGGSLKLSCAASGFTFSTYGMSWVRQTPDKGLEWVATVSTGGTYTYYPDSVKGRFTISRDNAKNTLYLQMSSLKSEDTAMYYCARGGYSFAYWGQGTLVTVSA VL: ENVLTQSPAIMSASPGEKVTMTCRASSSVSSSYLHWYQQKSGVSPKLWIYSTSNLASGVPARFSGSGSGTSYSLTISSVEAEDAATYYCQQYSGYPLTFGAGTKLELKR | – | ~120% | ~9.8 nM | 0.000676 s⁻¹ | 69000 M⁻¹ s⁻¹ | – | ~15 nM | – | 0.09 nM | neurite outgrowth, EC50 [1]: 1.58 nM |
| 5D11 (murine TrkB agonist monoclonal antibody) (antibody, mouse IgG1, kappa, V domains shown, Full length murine chains; same as 3E10; also called 3E10; 5D11 (=3E10)) VH: QVHLQQSGAELVRPGTSVKVSCKASGYAFTNYLIEWIKQRPGQGLEWIGVINPGSGGTNYNDKFKGKAILTADKSSTTAYMQLSSLTSDDSAVYFCARGGNDYGDYWGQGTSVTVSS VL: DIVLTQSPASLAVSLGQRATISCRASQSVSTSFYSYMHWYQQKPGQPPKVFIKYASNLQSGVPARFSGSGSGTDFTLNIHPVEEDDTATYYCQHSWEIPWTFGGGTKLEIKR | – | – | ~3.3 nM | 0.000145 s⁻¹ | 44100 M⁻¹ s⁻¹ | – | 1 to 2 nM | – | – | – |
| 3A3 (murine TrkB agonist monoclonal antibody) (antibody, mouse IgG1, kappa, V domains shown, Full length murine chains; also called 3B3; 3A3 (=3B3)) VH: QVQLQQSGAELAKPGASVKMSCKASGYTFSSYWMHWVKQRPGQGLEWIGYINPSTGYTDYNQKFKDKATLTADKSSNTAYMQLSSLTSDDSAVYYCARSRAARYWGQGTTLTVSS VL: not shown | – | ~160% | ~7.5 nM | 0.000897 s⁻¹ | 120000 M⁻¹ s⁻¹ | ~0.7 nM | 0.2 to 0.6 nM | – | 0.006 nM | – |

From patent publication US9914781 (GlaxoSmithKline, dated 2018)
